Source: US20200353049A1

Columns and labels:
[1] = biological target: IL-22R1a extracellular domain (ECD) (UniProt Q8N6P7); test: binding ELISA on plate-coated IL-22R1a ECD, relative to Reference Standard (100%); stored -20 C, 36 months
[2] = biological target: IL-22R1a extracellular domain (ECD) (UniProt Q8N6P7); test: binding ELISA on plate-coated IL-22R1a ECD, relative to Reference Standard (100%); stored -20 C, 6 months
[3] = biological target: IL-22R1a extracellular domain (ECD) (UniProt Q8N6P7); test: potency assay (binding ELISA on plate-coated IL-22R1a ECD), relative to reference standard (100%); stored 5 C, 24 months
[4] = biological target: IL-22R1a extracellular domain (ECD) (UniProt Q8N6P7); test: potency assay (binding ELISA on plate-coated IL-22R1a ECD), relative to reference standard (100%); stored 5 C, 18 months
[5] = biological target: IL-22R1a extracellular domain (ECD) (UniProt Q8N6P7); test: binding ELISA on plate-coated IL-22R1a ECD, relative to Reference Standard; pH 7.0 formulation stored 4 weeks at 30 C
[6] = biological target: IL-22R1a extracellular domain (ECD) (UniProt Q8N6P7); test: potency assay (binding ELISA on plate-coated IL-22R1a ECD), relative to reference standard (100%); stored 5 C, 3 months

Chain of UniProt Q8N6P7 (Q8N6P7 16-228 limits assumed): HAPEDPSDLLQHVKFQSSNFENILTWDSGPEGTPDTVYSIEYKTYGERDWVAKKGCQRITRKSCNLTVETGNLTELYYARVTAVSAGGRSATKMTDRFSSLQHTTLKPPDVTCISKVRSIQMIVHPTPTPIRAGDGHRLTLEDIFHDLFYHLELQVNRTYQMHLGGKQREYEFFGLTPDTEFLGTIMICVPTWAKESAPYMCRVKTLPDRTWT

Potency by Binding Assay (% relative potency) (% relative potency) [1]: 71 | Potency by Binding Assay (% relative potency) (% relative potency) [2]: 112 | Potency (% relative potency) (% relative potency) [3]: 83 | Potency (% relative potency) (% relative potency) [4]: 64 | Estimated % relative potency (n = 2) (% relative potency) [5]: 79 | Potency (% relative potency) (% relative potency) [6]: 73
Substance: IL-22 Fc fusion protein
